From patent US20260115279A1 (VIB VZW, published 2026) come the findings set out here.

Series [1] addresses BamA, E. coli, untagged (endogenous, or co-expressed from pSlyB-BamA with its native signal peptide) (E. coli, UniProt P0A940 21-810). Briefly: cell-based or functional assay.
Series [2] concerns the molecule itself. Briefly: α-SlyB Western of semi-native PAGE of whole cell lysate, with or without 1 mM EDTA.

B1: SlyB, native (endogenous) lipoprotein of E. coli (other)
chain: CVNNDTLSGDVYTASEAKQVQNVSYGTIVNVRPVQIQGGDDSNVIGAIGGAVLGGFLGNTVGGGTGRSLATAAGAVAGGVAGQGVQSAMNKTQGVELEIRKDDGNTIMVVQKQGNTRFSPGQRVVLASNGSQVTVSPR
modifications: N-terminal Cys18 carries the lipid anchor
As for B1, the “cellular thermal shift assay (CETSA) on cells treated with EDTA: melting temperature of BamA in ΔslyB mutant versus WT cells” value in series [1] is roughly 4 °C.

B2: SlyB^PL, SlyB mutant I65A/V69A/F73A with disrupted outer leaflet phospholipid binding site (other)
chain: CVNNDTLSGDVYTASEAKQVQNVSYGTIVNVRPVQIQGGDDSNVIGAAGGAALGGALGNTVGGGTGRSLATAAGAVAGGVAGQGVQSAMNKTQGVELEIRKDDGNTIMVVQKQGNTRFSPGQRVVLASNGSQVTVSPR
notes: whole, on cells; Tested in whole cell lysates and membrane fractions
Turning to B2, the binding result in series [2] was “no binding”.
